What was measured:
[1] = target: T1, human PD-L1 expressed on cells (human, UniProt Q9NZQ7 19-290); assay: cell-based or functional assay
[2] = target: T1, human PD-L1 expressed on cells; assay: cell-based or functional assay; remark: listed apart in the source
[3] = target: T2, human PD-L1-Fc chimeric protein (human, UniProt Q9NZQ7 19-238); assay: SPR Biacore T200, PD-L1-Fc captured by anti-human Fc
T2 construct: not shown: Fc part, captured by an anti-human IgG Fc antibody

[4] = target: T3, human serum albumin (human, UniProt P02768 25-609); assay: SPR Biacore T200, SA amine-coupled to CM5 chip, pH 5.5
T3 construct: also called HSA; human SA

Row | IC50 (ng/ml), NF-AT Potency assay [1] [ng/mL] | EC50 in ng/ml of IL-2 secretion, PBMC assay using SEA stimulation [2] [ng/mL] | binding result [3] | binding result [4] | Binder
1 | 11.1 | 40.9 |  |  | PRO997 (scFv) scFv: DIQMTQSPSSLSASVGDRVTITCQASQSIGTYLAWYQQKPGKAPKLLIYRAFILASGVPSRFSGSGSGTDFTLTISSLQPEDFATYYCQSNFYSDSTTIGPNAFGTGTKVTVLGGGGGSGGGGSGGGGSGGGGSQVQLQESGPGLVKPSETLSLTCKVSGFSFNSDYWIYWIRQPPGKGLEWIGSIYGGSSGNTQYASWAQGRVTISVDSSKNQFSLKLSSVTAADTAVYYCARGYVDYGGATDLWGQGTLVTVSS
2 |  |  | binds | binds | PRO966 (other, also called PRO1052; 38_27_C05 sc01 scDb-i/33-03-G02 sc01 scDb-o/19-01-H04-sc03 scFv) DIQMTQSPSSLSASVGDRVTITCQASQSINDYLAWYQQKPGKAPKLLIYKASTLASGVPSRFSGSGSGTDFTLTISSLQPEDFATYYCQQGYIITDIDNVFGTGTKVTVLGGGGGSQVQLQESGPGLVKPSETLSLTCKVSGFSFNNDYDMCWIRQPPGKGLEWIGCIDTGDGSTYYASWAKGRVTISVDSSKNQFSLKLSSVTAADTAVYYCAREAASSSGYGMGYFDLWGQGTLVTVSSGGGGSGGGGSGGGGSGGGGSIQMTQSPSSLSASVGDRVTITCQSSQSVYDNNWLAWYQQKPGKAPKLLIYRASNLASGVPSRFSGSGSGTDFTLTISSLQPEDFATYYCQGTYLSSNWYWAFGTGTKVTVLGGGGGSQVQLQESGPGLVKPSETLSLTCKVSGFSFSSGYDMCWIRQPPGKGLEWIGCVVAGSVDITYYASWAKGRVTISVDSSKNQFSLKLSSVTAADTAVYYCARKDAYSDAFNLWGQGTLVTVSSGGGGSGGGGSIQMTQSPSSLSASVGDRVTITCQSSESVYSNNQLSWYQQKPGQPPKLLIYDASDLASGVPSRFSGSGSGTDFTLTISSLQPEDFATYYCAGGFSSSSDTAFGGGTKLTVLGGGGGSGGGGSGGGGSGGGGSEVQLVESGGGLVQPGGSLRLSCAASGFSLSSNAMGWVRQAPGKGLEYIGIISVGGFTYYASWAKGRFTISRDNSKNTVYLQMNSLRAEDTATYFCARDRHGGDSSGAFYLWGQGTLVTVSS
3 |  |  | binds | binds | PRO1058 (other, also called 38_27_C05 sc01 scDb-i/33-03-G02 sc01 scDb-o/mxr HSA (23-13-A01-sc03,sk17sh4)) DIQMTQSPSSLSASVGDRVTITCQASQSINDYLAWYQQKPGKAPKLLIYKASTLASGVPSRFSGSGSGTDFTLTISSLQPEDFATYYCQQGYIITDIDNVFGTGTKVTVLGGGGGSQVQLQESGPGLVKPSETLSLTCKVSGFSFNNDYDMCWIRQPPGKGLEWIGCIDTGDGSTYYASWAKGRVTISVDSSKNQFSLKLSSVTAADTAVYYCAREAASSSGYGMGYFDLWGQGTLVTVSSGGGGSGGGGSGGGGSGGGGSIQMTQSPSSLSASVGDRVTITCQSSQSVYDNNWLAWYQQKPGKAPKLLIYRASNLASGVPSRFSGSGSGTDFTLTISSLQPEDFATYYCQGTYLSSNWYWAFGTGTKVTVLGGGGGSQVQLQESGPGLVKPSETLSLTCKVSGFSFSSGYDMCWIRQPPGKGLEWIGCVVAGSVDITYYASWAKGRVTISVDSSKNQFSLKLSSVTAADTAVYYCARKDAYSDAFNLWGQGTLVTVSSGGGGSGGGGSVVMTQSPSSLSASVGDRVTITCQASQIISSRSAWYQQKPGQPPKLLIYQASKLASGVPSRFSGSGSGTDFTLTISSLQPEDFATYYCQCTYIDSNFGAFGGGTKLTVLGGGGGSGGGGSGGGGSGGGGSEVQLVESGGGLVQPGGSLRLSCAASGFSFSSSYWICWVRQAPGKGLEWVGCVFTGDGTTYYASWAKGRFTISRDNSKNTVYLQMNSLRAEDTATYFCARPVSVYYYGMDLWGQGTLVTVSS

Source: patent EP3470429A1 (Numab Innovation AG, dated 2019)
